The values that follow come from publication PMC4838544 (Gene, 2016).

For the assay, the target named is T1, E. coli topoisomerase I with a N-terminus 6x-His tag (E. coli, UniProt P06612 1-865).
T1 sequence (looked up): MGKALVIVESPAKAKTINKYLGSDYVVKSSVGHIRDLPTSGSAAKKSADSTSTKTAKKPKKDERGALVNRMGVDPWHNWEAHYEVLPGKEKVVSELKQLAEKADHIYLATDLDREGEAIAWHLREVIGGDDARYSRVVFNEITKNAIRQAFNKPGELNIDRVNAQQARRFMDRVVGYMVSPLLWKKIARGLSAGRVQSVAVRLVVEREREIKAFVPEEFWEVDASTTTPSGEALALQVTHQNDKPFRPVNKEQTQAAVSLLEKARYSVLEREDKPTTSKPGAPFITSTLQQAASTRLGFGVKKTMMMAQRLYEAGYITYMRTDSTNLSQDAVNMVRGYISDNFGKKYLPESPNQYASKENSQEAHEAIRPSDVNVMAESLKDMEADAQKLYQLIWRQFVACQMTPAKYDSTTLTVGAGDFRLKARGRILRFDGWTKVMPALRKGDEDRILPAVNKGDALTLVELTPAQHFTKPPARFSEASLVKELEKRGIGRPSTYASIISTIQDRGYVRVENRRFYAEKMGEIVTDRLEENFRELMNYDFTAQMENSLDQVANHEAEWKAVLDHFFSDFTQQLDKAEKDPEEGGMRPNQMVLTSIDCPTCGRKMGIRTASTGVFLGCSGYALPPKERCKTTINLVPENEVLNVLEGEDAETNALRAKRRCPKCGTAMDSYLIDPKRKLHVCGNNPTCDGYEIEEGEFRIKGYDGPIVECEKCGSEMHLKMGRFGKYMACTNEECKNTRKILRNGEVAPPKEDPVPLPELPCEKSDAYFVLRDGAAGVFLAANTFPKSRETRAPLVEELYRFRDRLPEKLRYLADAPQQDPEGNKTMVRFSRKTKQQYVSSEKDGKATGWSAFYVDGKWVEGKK
In words: pull-down.

B1: Purified E. coli RecA (natural protein)
chain: AIDENKQKALAAALGQIEKQFGKGSIMRLGEDRSMDVETISTGSLSLDIALGAGGLPMGRIVEIYGPESSGKTTLTLQVIAAAQREGKTCAFIDAEHALDPIYARKLGVDIDNLLCSQPDTGEQALEICDALARSGAVDVIVVDSVAALTPKAEIEGEIGDSHMGLAARMMSQAMRKLAGNLKQSNTLLIFINQIRMKIGVMFGNPETTTGGNALKFYASVRLDIRRIGAVKEGENVVGSETRVKVVKNKIAAPFKQAEFQILYGEGINFYGELVDLGVKEKLIEKAGAWYSYKGEKIGQGKANATAWLKDNPETAKEIEKKVRELLLSNPNSTPDFSVDDSEGVAETNEDF
Turning to B1, the binding result is “binds”.
